Measurements as given in patent US8524231.

B1: antagonistic Fab 1C3 (Fab, part only; not given: lambda light chain, constant domains, V domains shown, not shown: a dimerising Fc or GST)
VH: EVQLVESGGGLVQPGGSLRLSCAASGFTFSSYWMYWVRQAPGKGLEWVSAINTGGGRTYYADSVKGRFTISRDNAKNTLYLQMNSLKSEDTAVYYCAKGTSADGSSWYVPADPYDYWGQGTQVTVSS
B2: antagonistic Fab 1A1 (Fab, part only; not given: lambda light chain, constant domains, V domains shown, not shown: a dimerising Fc or GST)
VH: EVQLVESGGGLVQPGGSLRLSCAASGFTFDDYAMSWVRQAPGKGLEWVSTISWNGGATYYAESMKGRFTISRDNAKNTLYLQMNSLKSEDTAVYYCAKPYYSDYVGVEYDYWGQGTQVTVSS
B3: antagonistic Fab 1B3 (Fab, part only; not given: lambda light chain, constant domains, V domains shown, not shown: a dimerising Fc or GST)
VH: EVQLVQSGAELRNPGASVKVSCKASGYTFTSYYIDWVRQAPGQGLEWMGRIDPEDGGTKYAQKFQGRVTFTADTSTSTAYVELSSLRSEDTAVYYCARSGRYELDYWGQGTQVTVSS
B4: Fab 1G1 (clone related to 1B3) (Fab, part only; not given: light chain, V domains shown, part only)
VH: EVQLVQSGAELRNPGASVKVSCKASGYTFTSYYTDWVRQAPGQGLEWMGRIDPEDGDTKYAQKFQGRVTFTADTSTSTAYVELTSLRSEDTAVYYCLRSGAYELDYWGQGTQVTVSS

How the values were obtained:
[1] = biological target: biotinylated human IL-1Beta (human) (UniProt P01584); experiment: cell-based or functional assay
[2] = biological target: biotinylated human IL-1Beta (human) (UniProt P01584); experiment: ELISA based competition assay against the antagonistic reference mouse mAb (competitor)
[3] = biological target: biotinylated human IL-1Beta (human) (UniProt P01584); experiment: competition ELISA: periplasmic Fab extract plus biotinylated IL-1Beta on coated mouse mAb (competitor); reduced signal means competition

biotinylated human IL-1Beta (human), sequence (P01584 117-269 limits assumed): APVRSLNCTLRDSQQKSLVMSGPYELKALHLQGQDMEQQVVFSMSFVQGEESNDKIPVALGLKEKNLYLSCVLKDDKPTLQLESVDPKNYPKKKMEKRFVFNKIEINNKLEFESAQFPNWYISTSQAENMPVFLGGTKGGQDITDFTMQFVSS

| IC50 in the bioassay [1] [µg/mL] | concentration at which competition is seen [2] [µg/mL] | signal (OD) in the competition assay [3] [OD] | Binder |
| --- | --- | --- | --- |
| 3 | > 50 | 0.386 | B1 |
|  |  | 0.205 | B2 |
|  |  | 0.444 | B3 |
|  |  | 0.498 | B4 |
